This data set deals with the molecule itself. The data set is described as follows: high-speed atomic force microscopy.

Where “and” joins values, the source holds several entries; their conditions need not be identical. Equal entries are not always repeated.

B1: Human Recombinant ADAR Protein NM_001025107 (ADAR1-p110) (enzyme, UniProt P55265-5 1-931, looked up)
chain: MAEIKEKICDYLFNVSDSSALNLAKNIGLTKARDINAVLIDMERQGDVYRQGTTPPIWHLTDKKRERMQIKRNTNSVPETAPAAIPETKRNAEFLTCNIPTSNASNNMVTTEKVENGQEPVIKLENRQEARPEPARLKPPVHYNGPSKAGYVDFENGQWATDDIPDDLNSIRAAPGEFRAIMEMPSFYSHGLPRCSPYKKLTECQLKNPISGLLEYAQFASQTCEFNMIEQSGPPHEPRFKFQVVINGREFPPAEAGSKKVAKQDAAMKAMTILLEEAKAKDSGKSEESSHYSTEKESEKTAESQTPTPSATSFFSGKSPVTTLLECMHKLGNSCEFRLLSKEGPAHEPKFQYCVAVGAQTFPSVSAPSKKVAKQMAAEEAMKALHGEATNSMASDNQPEGMISESLDNLESMMPNKVRKIGELVRYLNTNPVGGLLEYARSHGFAAEFKLVDQSGPPHEPKFVYQAKVGGRWFPAVCAHSKKQGKQEAADAALRVLIGENEKAERMGFTEVTPVTGASLRRTMLLLSRSPEAQPKTLPLTGSTFHDQIAMLSHRCFNTLTNSFQPSLLGRKILAAIIMKKDSEDMGVVVSLGTGNRCVKGDSLSLKGETVNDCHAEIISRRGFIRFLYSELMKYNSQTAKDSIFEPAKGGEKLQIKKTVSFHLYISTAPCGDGALFDKSCSDRAMESTESRHYPVFENPKQGKLRTKVENGEGTIPVESSDIVPTWDGIRLGERLRTMSCSDKILRWNVLGLQGALLTHFLQPIYLKSVTLGYLFSQGHLTRAICCRVTRDGSAFEDGLRHPFIVNHPKVGRVSIYDSKRQSGKTKETSVNWCLADGYDLEILDGTRGTVDGPRNELSRVSKKNIFLLFKKLCSFRYRRDLLRLSYGEAKKAARDYETAKNYFKKGLKDMGYGNWISKPQEEKNFYLCPV
Turning to B1, the stoichiometry N (commonly a count of units in the complex or per binding partner) was 2 and 3 and 4.
